Data published in the RNAGym collection of RNA variant scans (doi:10.1073/pnas.2313332121).

B1: TPR t1 (parent)
chain: GACCAAUCUGCCCUCAGAGCUCGAGAACAUCUUCGGAUGCAGAGGAGGCAGGCUUCGGUGGCGCGAUAGCGCCAACGUCCUCAACCUCCAAUGCAUCCCACCACAUGAUGAUGCCUGAAGAGCCUUGGUUUUUUG

Variants of: B1
Assay: polymerase ribozyme fitness, log enrichment relative to wild type (log ratio); higher = more active; in vitro selection for triplet polymerase activity
How it was run: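 In triplicate, a single round of in vitro selection was run on each mutant library, PCR-built and transcribed, covering one subunit of a heterodimeric triplet polymerase ribozyme. Frozen incubation at −7 °C followed annealing with a biotinylated primer, partner subunit and triplets, and extended constructs were then gel-excised, streptavidin-captured and taken through RT-PCR. Fitness is the logarithm of genotype enrichment over wild-type enrichment, from inverse-variance-weighted replicate averages of Illumina-sequenced inputs and outputs. […] only genotypes with ≥10 input reads and ≥1 read per output were kept.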

First: GACCAAUCUGCCCUCAGAGCUCGAGAACAUCUUCGGAUGCAGAAUAGGCAGGCUUCGGUGGCGCGAUAGCGCCAACGUCCUCAACCUCCAAUACAUCCCACCACAUGAUGAUGCCUGAAGAGCCUUGGUUUUUUG [G44A G45U G93A]
Second: GACCAAUCUGCCCUCAGAGCUCGAGAACAUCUUCGGAUGCAGAAGAGGCAGGCUUCGGUGGCGCGAUAGCGCCAACGUCCUCAACCUCCAAUGCAUCCCACCACAUGAUCAUGCCUGAAGAGCCUUGGUUUUUUG [G44A G110C]
The “polymerase ribozyme fitness (log ratio)” value of the first is higher: -3.07 for the first, -4.8 for the second.

Going from GACCAAUCUGCCCUCAGAGCUCGAGAACAUCUUCGGAUGCAGAAGAGCCAGGCUUCGGUGGCGCGAUAGCGCCAACGUCCUCAACCUCCAAUGCAUCCCACCACAUGAUGAUGCCUGAAGAGCCUUGGUUUUUUG [G44A G48C] to GACCAAUCUGCCCUCAGAGCUCGAGAACAUCUUCGGAUGCAGAAGAGGCAGGCUUCGGUGGCGCGAUAACGCCAACGUCCUCAACCUCCAAUGUAUCCCACCACAUGAUGAUGCCUGAAGAGCCUUGGUUUUUUG [G44A G69A C94U], the “polymerase ribozyme fitness (log ratio)” value falls from -1.44 to -4.26.

First: GACCAAUCUGCCCUCAGAGCUCGAGAACAUCUUCGGAUGCAGAAGAGGCAGGCUUCUGUGGCGCGAUAGCGCCAACGUCCUCAAUCUCCAAUGCAUCCCACCAAAUGAAGAUGCCUGAACAGCCUUGGUUUUUUG [G44A G57U C85U C104A U109A G120C]
Second: GACCAAUCUGCCCUCAGAGCUCGAGAACAUCUUCGGAUGCAGAAGAUGCAGGCUUCGGUGGCGCGAUAGCGCCAACGUCCUCAACCUCCAAUGCAUCCCACCACAUGAUGAUGCCUGAAGAGCCUUGGUUUUUUG [G44A G47U]
The “polymerase ribozyme fitness (log ratio)” value of the first is lower: -4.62 for the first, -2.36 for the second.

Going from GACCAAUCUGCCCUCAGAGCUCGAGAACAUCUUCGGAUGCAGAAGAGGCAGGCUUCGGUUGCGCGAUAGCGCCAACGUCCUCAACCUCCAAUGCAUCCCACCACAUGUUGAUGCAUGAAGUGCCUUGGUUUUUUG [G44A G60U A108U C115A A121U] to GACCAAUCUGCCCUCAGAGCUCGAGAACAUCUUCGGAUGCAGAAGAGGCAAGCUUCGGUGGCGCGAUAGCGCCAAAGUCCUCAACCUCCAAAGCAUCCCACCACAUGAUGAUGCCUCAAGAGCCUUGGUUUUUUG [G44A G51A C76A U92A G117C], the “polymerase ribozyme fitness (log ratio)” value falls from -4.86 to -6.37.

Going from GACCAAUCUGCCCUCAGAGCUCGAGAACAUCUUCGGAUGCAGAAGAGGCAGGCUGCGGUGGCCCGAUAGCGCCAACGUCCUCAACCUCCAAUGCAUCCCACCACAUGAUGAUGCCUGAAGAGCCUUGGUUUUUUG [G44A U55G G63C] to GACCAAUCUGCCCUCAGAGCUCGAGAACAUCUUCGGAUGCAGAAGAGGCAGGCUUCGGUGCCGCGAUAGCGCCAACGCGCUCAACCUCCAAUGCAUCCCACCACAUGAUGAGGCCUGAAGAGCCUUGGUUUUGUG [G44A G61C U78C C79G U112G U133G], the “polymerase ribozyme fitness (log ratio)” value falls from -0.567 to -3.14.

Compared with GACCAAUCUGCCCUCAGAGCUCGAGAACAUCUUCGGAUGCAGAAGAGGCAGGCUUCGGUGGCGCGAUAGCGCCAACGUCCUCAACCUCCAAUACAUCCCACCACAUGAUGAUGCCUGAAGAGCCUUGGUUUUUUG [G44A G93A], GACCAAUCUGCCCUCAGAGCUCGAGAACAUCUUCGGAUGCAGAAGAGGCAGGCUUCGGUGGCGCGAUAGCGCCAACGUCCUCAACCUCCAAUCCAUCCCACCACAUGAUGAUGCCUGAAGAGCCUUGGUUUUUUG [G44A G93C] is lower in “polymerase ribozyme fitness (log ratio)” value: -1.2 for the first, -2.23 for the second.

Going from GACCAAUCUGCCCUCAGAGCUCGAGAACAUCUUCGGAUGCAGAAGAGGCAGGCUUCGGUGGCGCGAUAUCGCCAACGUCCUCAACCUCCAAUGCAUCCCACCAAAUGAUGAUGCCUGAAGAGCCUUGGUUUUUUG [G44A G69U C104A] to GACCAAUCUGCCCUCAGAGCUCGAGAACAUCUUCGGAUGCAGAAGAGGCAGGCUACGGUGGCGCGAUAGUGCCAACGUCCUCAAGCUCCAAUGCAUCCCACCACAUGAUGAUACCUGAAGAGCCUUGGUUUUUUG [G44A U55A C70U C85G G113A], the “polymerase ribozyme fitness (log ratio)” value falls from -1.28 to -4.29.

Going from GACCAAUCUGCCCUCAGAGCUCGAGAACAUCUUCGGAUGCAGAAGAGGCAGGCUUCGGUGGCGCGAUAGCGCCAACGUCCUCAACCUCCAAUGCAUCCCAGCACAUGAUGAUGCCUGAAGAGCCUUGGUUUUCUG [G44A C101G U133C] to GACCAAUCUGCCCUCAGAGCUCGAGAACAUCUUCGGAUGCAGAAGAGGCAGGCUUCGGUAGCGCGAUGGCGCCAACGUCCUCAAUCUCCAAUGCAUCCCACCACAAGAUGAUGCCUGAAGAGCCUUGGCUUUUUG [G44A G60A A68G C85U U106A U129C], the “polymerase ribozyme fitness (log ratio)” value falls from -2.92 to -5.96.

Compared with GACCAAUCUGCCCUCAGAGCUCGAGAACAUCUUCGGAUGCAGAAGAGGCAGGCUUCGGUGGCGCGAUAGCUCCAACGUCCUCAACCUCCAAUGCAUCCCACCACAUGAUGAUGCCUGAAGAGCCUUGGUUUUUUG [G44A G71U], GACCAAUCUGCCCUCAGAGCUCGAGAACAUCUUCGGAUGCAGAAGAGGCAGGCUUCGGUGGCACGAUAGCGCCAACGUCCUCAACCUCCAAUGCAUCCCACCACAUGAUGAUGCCUGAAGAACCUUGGUUUUUUG [G44A G63A G122A] is lower in “polymerase ribozyme fitness (log ratio)” value: -1.33 for the first, -2.73 for the second.

First: GACCAAUCUGCCCUCAGAGCUCGAGAACAUCUUCGGAUGCAGAAGAGGCAUGCUUCGGUGGCGCGAUGGCGCCAACGUCCUCAACCUCCAAUGCAUCCCACCACAUGAUGAUGCCUGAAGGGCCUUGGUUUUUUG [G44A G51U A68G A121G]
Second: GACCAAUCUGCCCUCAGAGCUCGAGAACAUCUUCGGAUGCAGAAGAGGCAGGCUUCGGUGGCGCGAUACCGCCAACGUCCUCAACCUCUAAUGCAUCCCACCACAUGAUGAUGCCUGUAGAGCGUUCGUUUUUUG [G44A G69C C89U A118U C124G G127C]
The “polymerase ribozyme fitness (log ratio)” value of the first is lower: -5.63 for the first, -0.292 for the second.

For GACCAAUCUGCCCUCAGAGCUCGAGAACAUCUUCGGAUGCAGAAGAGGCAGGCUUCGGUGGCACGAUAGCGCCAACGUCCUCAACCUCCAAUGCAUCCCACCACAUGAUGCUGCCUGAAGAACCUUGGUUUUUUG [G44A G63A A111C G122A], the “polymerase ribozyme fitness (log ratio)” value was -5.
